Experimental data from the DeepSol protein solubility set.

assay: soluble on expression in E. coli; label from the status in PepcDB or PDB records

Sequence | soluble on expression in E. coli
MVATEKKFTLRHIFKNVSQLEDGKYLYSPDEDHFNVDWNMSISHKKEKLGVYFYCYKSEESASAWSIDTEYDLALKNSSGKRISIDFKYKFSTSTGFGTAELVSWDAMIKDYLIDDVIIMEATVKIINLMGIPKKTLRTFDESNEEFSDVILTVEDEKFYVLKQFLASHSSHFKTLFLRKCEEEAEKSEYTLQDINSIDFQNLLEVLHGEPAIDEETVQGIRDLADKYDMPFPTRKCEEFLIDLSEKSIKEKLKIAKQFQLEKLKMHCLSKIETVDHIKAAMTGDPIEMDLSVLAALLGKSLALH | not soluble
MGSDKIHHHHHHMKDGKLYVAFSGGKDSSLVAILAKMALGEERVELVTVDWSPYTYERSREIVRNFAEKHGLKHTFIPSNRMQEKVWKHGPSCNACTRDVKTVLVKRYAQGHLVASGANASDSWGKTGLKVFDGVYSPLCRVGKEEINEMLKFLGLEVKKIGESAGREGCKLKHLLKMLINPDYHGKAVSTANEILLRVLEEHGFKPELANVKIIGPLSRNIALVNVKPLPPEKVMNEIVEKLSAEETIDGVIVVDGPMKLVVLASPAIYRNEESRKWIKEGRLQPEFAFPIEIEWRESKNNKLRTFQVVDARKE | not soluble
MGSDKIHHHHHHDEIDTLVSKSDNAITFGTYVGKQTKALDKSAFAKDDKFGVSAYYGDGTFEANFMSNETISTTDGSTWTYTNTKYWPEGNPVSFVAYYPNLTTAPTITDGATAIPFTVKNDATEQVDFMWSTVKAATKDDKNGTAINGITNTTTDATSVPFVFQHGLSKISFKAKLGEASYSGVTIKVKSIKINGVKNKGTFTIPADLTAGTWATEDAATNDYTVSETNGKEIASTTADSIGESLLMIPQDMKGKTIEIAYDLVYTNPAQTISNTKAIVLDDKSNWVMNQQYTYTLTISLETVQLTASVGQFGANIDL | not soluble
MGSDKIHHHHHHMRMTTDKKQGKSRELDLFITDLNGNLRGKRLPASGLKKLRKEGLKLPLSVVGFDFWGADVLDNGLVFETGDSDGVCMPVSQEPIPVPWSEAPRDQMLAMMFNPDGTPFGADPRQVLNRMVDRFSAKGLTPVLATELEFYLMDAESESVQRPIPPALADGKGRRLANAEGYSVEEMDGFEAFFADIREACQGQGIGADTIIAEMGPGQFEVNLNHVADPLNAGDQAILFKRLVRGVSRRHGYAATFMAKPYVEESGNGFHTHFSLLDRDGNNVFDDGTEQGSDLLRHAIAGMMQLMPESMLVFAPHLNSYRRFMPGAHAPTHASWGYENRTVALRVPESPNLARRIEHRVAGADANPYLVLASILAGALHGMENALEPDAPVEGDAYAEESPRYPLPCEWQDAIARFEQSEILREYLGEEFVRVYAQAKRQERRRLNERISDVEYEAYLGLL | not soluble
QEGDAAKGEKEFNKCKACHMVQAPDGTDIVKGGKTGPNLYGVVGRKIASVEGFKYGDGILEVAEKNPDMVWSEADLIEYVTDPKPWLVEKTGDSAAKTKKTFKLGKNQADVVAFLAQHSPDAGAEAAPAEGAAN | soluble
MTQRPWSKLQREIYDLLTPTINLQIHCTRYPMRSQNGGSTDLPRYWITLDKNVIWDYPKDFIAGNAGVRNFHGETCWYPYLTDICSISDLLREYIDTPKAELLTKQFTSDKWGLVNILRAADRRIGMRRLDQLRRKTHNIAALKIIARRSE | not soluble
MGSDKIHHHHHHMSAVLYSNLKFLRFKDQLDALAGGTVAPPVHIRIKPTNRCNHKCWYCAYRTDDLKLGEDMDESDLIPEAKMMEIADDIVAMGVKAVTFSGGGEPLLYKPLPEVIDRLAAGGVRVATLTNGANLKGKVAQSLARHATWVRVSVDAWDDDSYVSSRGAKAGEFTKLLENMKAFVETGTKCVLGVSFIAGKDNYHRLSEVCARFKAIGVNHVKLSAAVVGNSVDENNRYHREFAEGARAEIERAKALSGDGFSVLDHFHEMESRFEKDYHRCPFLQFLTVIGADQTVYTCQDKAYTKEGTLGSIRGRSFRDYWFSEENRQRMAEFDPSRLCRHHCVSHSKNQAIMQYLSIDSEHGLFV | not soluble
MSLAQTLGYIYRKRMIDSIEEFSRQIETTYQINKFWDNFEQIREVQNTKIDKVKEKQQKLMERLSSLYDKVEGQKEMGSMNNSNISAAESEWFAEIKRSVIEFNSYVRKASTNHQELEFIKEQQAQIANQKPDISSENGKEWNDLQQLLREGHHHHHH | soluble
MMKKRASHHLVICTLIDTLRFRLSSRKAISMNAFNKLVKHSKKISNFNHLSSIVGWDQAAVMPSGGAEARSQAMAELSVHIHGLMTQPQLADWFAEAESETLNIEQQATLREMKRQWQQATVLPEALVEAQSLAGSKCEHAWRSQRKNNDWTGFEKNWAEVVKLSQEEAQIRAEATGKTPYDAMLELYEPGTTTEQLNRVFSDVKTWLPSLIDVVIEKQSSESFIAPKGHYPAESQKALGLDVMKLLQFDFNHGRLDESVHPFCGGVPSDVRITTRYNESEFVQSLMGIVHETGHARYEQGLPKHLAGTPAGEARSMGIHESQSLFFEMQVGRSPAFIAHLAELAGKHFSAMNDPVFRVENIQKLYTRVQKDFIRVDADELTYPAHVILRFEIERDLMNGKIKHTDVPELWDQKMQAYLGLSTKGNDQNGCMQDIHWTDGSFGYFPSYTLGAMYAAQFMAAMKKTVDVDGAIRRGDLSPIFTWLSENIWSKGSLFSTDELVKQATGETLNPEHFKAHLSQRYLK | not soluble
MIRWFRNFGALFKKPRGAGLMKNEQTHNLQRVVQNDITCPEEQRSTGGKGGGGGSHGGHGGSHGGSHGGHGSHGGSYGGHSGHGRSFSTSSGSSGYRGLSSGSTNTSYSKSTPRTNSGYSTGKTTKTASSSRNYSNTSSTRSTTKPSKSSYSKRSTKSTKSLNYSSSSLGSKSIEKSRRSSRKSGSRQDSVASRRQLRSVSSKPQKKYVATDMPSTVSTGRSRGRSVYRRNNVNADVSQRQSRSMSVSRGRSRNRSQNRERSPSIEKSTRSQHVSRKDAFNSHDVLSPTNRSGSVHRSHSAHHERTFEERHKTPNGVWNEMFPKGTLVMYTDGSYLKRPPTSGIGIFVGPGHELNRSQRIRGPIQDNNYAEFIAVRTALQNALKNENYRDQKVVIRTDCLNVIEALQGTRPTAFVDVKSQVEFLSKQFPKGVHFQHVYAHAGDPGNEMADLFAGQASSKSQNSFGGGQRTRSASTARGRSRERNRLRSKSNDPSFIRSRSHSIHSRK | not soluble
MIGNLKLKRFEEVNLVLSGGAAKGIAHIGVLKALEELGIKVKRLSGVSAGAIVSVFYASGYTPDEMLKLLKEVNWLKLFKFKTPKMGLMGWEKAAEFLEKELGVKRLEDLNIPTYLCSADLYTGKALYFGRGDLIPVLLGSCSIPGIFEPVEYENFLLVDGGIVNNLPVEPLEKFKEPIIGVDVLPITQERKIKNILHILIRSFFLAVRSNSEKRKEFCNVVIEPPLEEFSPLDVNKADEIFLRGYESTLRIMRNFVKHLEHHHHHH | not soluble
VVQAPTQVPGFLGDSVTLPCYLQVPNMEVTHVSQLTWARHGESGSMAVFHQTQGPSYSESKRLEFVAARLGAELRDASLRMFGLRVEDEGSYTCLFVTFPQGSRSVDIWLRVLAKPQNTAEVQKVQLTGEPVPMARCVSTGGRPPAQITWHSDLGGMPQTSQVPGFLSGTVTVTSLWILVPSSQVDGKQVTCKVEHESFEKPQLLTVSLTVYY | soluble
MAHHHHHHMPRNRSSGDDGGGGGKRGGRYAAVVEKGENAWKREWSSFMSGVNLKRLRDGTSGVTLKASADIERQLVAREAAPSSSSVAGEHDNGNDVEVNADGIPLGAIASHASFSYLFSSPAERRAERDARERAEAERRQAHKRELMAKKDPLSVLSKHQRAMHNAEQRGLQLDGMTRKERRSFLHLTVTEAQRKAEEQSREFKLHDLMDEKLAWYQQGPHPIDLIAEKLVRRKAEKKGKQLGLKYNYLAPHPSWLAKRAQRRRESLLVGLGKRLIFLERVTGEDKDDATTVPSSEVMVTDPLHHLTVPLSEMGRLLGQHGSASLSAAAAAAADADALVTAAAGSSSGDDIEDVKGADEEGAQHLGGEVDRGHRGDVTAARKKAVSASSAASSAGGCSSASPGKRASGEAGDDGVGNDAAQMRLPDVVVLQDPSRIATSLVRTVARDRTTALAIQQINRTTNFLSSGLVKGPSLRPEDALPGNGLSPRGLGAAPAAAALTPSPKSSMVAASMQDSAANSTKGAATTSRGASAAGRGRRRVRVADGEEEGGERRRHRRGADVSAGESQTKTSKPTASPSPRPRGARPPPTHTHELRDITSRSGPSKSQGGQVSSSKTKRQRANSRYD | not soluble
MKIPDLTNYEHLIGGLCGGVTSTVVCHPFDLLKIRFSANEGSSLRPQYSSYADAVRKIVRVEGVRGLYQGWTPSLIGASLSWGLYFQWYNSLRTKIYENFSTGSKLANNLISGCISGSAIMCITNPIWLTKTRLCLQYENQQSKKYAGMMDCLKKTVKQEGFFGLYRGFVTGVIGTTHGAVQIAAYSWIIDKRCQSQGLPKDSFLSQTDYVIASSTSKVLATTITFPYQVLRTRMQDHNTDSRGVWKTTLKTIHNEGIGGLWKGCLIANVRQLPAAVVTFLTYENVKRLVGMTKQI | not soluble
GASIRWEWRAARFADYLLQTRLKSRNNGLRVVYSITINLVPNHLDKRAHKYLGMVRQASRKYGVDESLILAIMQTESSFNPYAVSHADAMGLMQVVQHSAGRDVFRSQGKSGLPSRSYLFDPANNIDTGTAYLAMLNNVYLAGIDNPTSRRYAVITAYNGGAGSVLRVFSSDKVQAANIINSMAPGDVYQTLTTRHPSAESRRYLYKVNTAQKSYRRK | not soluble
MNSQELLAIAVDAIDNKKGEDTISLEMKGISDMTDYFVVTHGNNERQVQAIARAVKEVANEQNIEVKRMEGYNEARWILIDLADVVVHVFHKDERNYYNIEKLYQDAPLESYSQVAYLEHHHHHH | not soluble
NENNTVVAETKTSTASETSEPKQVISSKQQLASLYLQAKQSLFKQRALSATMYGLSQKDIGQVISSDMEFYSPENEKQLRAELLSISNTIAGIKLDDADITTKNNQQVMAGLTRYFAGEPNFNIGYIDTWMGLSPFIVNQINGPLIDIPRVMQNDQPITTEKEALDYIVRLGQFDKLAATIIEKQTADAAQNWLPSKVTLQGAIKYLKGFTSGSAEQHPFVNVFREKIEKVDSLTTEQKQSLITQVIAKVSQVVYPAYQSVEKASEQLLSEARSESGIWAQPKGSVYYQDAIKQLGDSELSPTQIHQIGLDEVARISGVMNEILLAQGYTKGTVGERMVALNEEPRFLYEDSIAGREELLSDINGYITEVTAKMAPVFRTTPSYQVEVKSFPVEVQDGAPGGQYTSPAVDGSKPGIYWINLRDMKANPKFGLKTLTYHEANPGHHWQIALNLDQAELPFLRRIAPYNAYTEGWALYSEQVAYELGMYENDPFGDLGRLQAELFRAVRLVVDTGLHDKRWTREQAISYMSEQTGTAESDVVAEIERYMAWPGQALGYKLGMLKILSLREQAKARLGDKFDLAEFHDVVLLNGAVPMAVLSRNVNHWLDNK | soluble
MGSDKIHHHHHHMVLSLSSHNVIQYLQEAGLCSSEDDASDKSELPGSSKNNSDLLVTLADNRKLLVKQEHNVKNNDVAPRELFQEWLFHQLLQQFPVLGNISAIAPLVVHFDEENSILVRNYLSEYLKLATFYHNNEIFPQEIATAIGTTLAGLHRATYNRREYRDFMATAPQGEFRYGFYNPAQGVESIGPEIFGTVPTEALKFYLLYQQSESLESAIADLAYDWNPCCLTHNDLKLNNILVHSRWKKLDNCLVRLINWEACSWGDPAFDLGTLLASYLRIWLNSLVVDPTIELQESLHLALTPLESLQPSIIALIRAYLNAFPMILEYRSDFIVRVIQFAGLALIHQIQDMITCRKSFNNTDICMLQVAKSLLTMPQQGVLTIFGISESEILNPVGKVHKLPQPVKEPQLLRLYYEKTRLRGC | not soluble
KARGNVGFVAGSSYGTGSVWTRNNEVVVLTASHVVGRANMATLKIGDAMLTLTFKKNGDFAEAVTTQSELPGNWPQLHFAQPTTGPASWCTATGDEEGLLSGEVCLAWTTSGDSGSAVVQGDAVVGVHTGSNTSGVAYVTTPSGKLLGADTVTLSSLSKHFTGPLTSIPKDIPDNIIADVDAVPRSLAMLIDGLSNRE | soluble
